Test results from paper PMC10076285, “Oncogenic CALR mutant C-terminus mediates dual binding to the thrombopoietin receptor triggering complex dimerization and activation” (Nature Communications, 2023).

Target: T1, Recombinant human TpoR extracellular domain D1-D4 with mature N-glycans (human, UniProt P40238 26-489, mature N-glycans (4 N-glycans on the ECD))
T1 construct: thrombopoietin receptor (TpoR), human, extracellular domain D1-D4, starts at Q26 and ends at T489; details in Supplementary Methods; also called TpoR D1-D4; hTpoR D1-D4; source: Schneider S2 cells, purified; not shown: His tag, C-terminal, kept
T1 sequence (looked up): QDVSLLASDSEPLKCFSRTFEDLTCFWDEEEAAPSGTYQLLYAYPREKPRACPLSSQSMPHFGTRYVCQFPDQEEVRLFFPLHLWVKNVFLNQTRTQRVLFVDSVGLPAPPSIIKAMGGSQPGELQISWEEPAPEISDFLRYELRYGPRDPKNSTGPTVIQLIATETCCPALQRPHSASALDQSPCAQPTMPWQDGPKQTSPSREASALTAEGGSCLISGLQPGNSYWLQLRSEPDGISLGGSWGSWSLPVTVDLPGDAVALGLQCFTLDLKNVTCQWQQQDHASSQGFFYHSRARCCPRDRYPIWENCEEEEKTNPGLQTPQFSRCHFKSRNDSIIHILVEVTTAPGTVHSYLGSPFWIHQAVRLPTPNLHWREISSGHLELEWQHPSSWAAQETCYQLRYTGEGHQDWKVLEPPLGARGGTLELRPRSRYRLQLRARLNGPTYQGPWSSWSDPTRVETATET
Assay: MST; CALR del52 labelled with RED-NHS at 20 nM; label-free TpoR D1-D4 titrated 0.15 nM to 5 μM; Tris-based MST buffer with 0.01% Tween 20; Monolith NT.115, 40% LED, medium MST power
Conditions: both partners purified

B1: Recombinant human CALR del52 (natural protein)
chain: EPAVYFKEQFLDGDGWTSRWIESKHKSDFGKFVLSSGKFYGDEEKDKGLQTSQDARFYALSASFEPFSNKGQTLVVQFTVKHEQNIDCGGGYVKLFPNSLDQTDMHGDSEYNIMFGPDICGPGTKKVHVIFNYKGKNVLINKDIRSKDDEFTHLYTLIVRPDNTYEVKIDNSQVESGSLEDDWDFLPPKKIKDPDASKPEDWDERAKIDDPTDSKPEDWDKPEHIPDPDAKKPEDWDEEMDGEWEPPVIQNPEYKGEWKPRQIDNPDYKGTWIHPEIDNPEYSPDPSIYAYDNFGVLGLDLWQVKSGTIFDNFLITNDEAYAEEFGNETWGVTKAAEKQMKDKQDEEQRTRRMMRTKMRMRRMRRTRRKMRRKMSPARPRTSCREACLQGWTEA
modifications: RED-NHS dye on lysines (in the MST experiment only)
- Kd: ~104 nM
